Source: patent US20220056125A1 (CEPHALON, published 2022)
Substitutions are numbered along the chain they refer to.

T1: human PAR-2 (human, UniProt P55085 26-397)
T1 sequence: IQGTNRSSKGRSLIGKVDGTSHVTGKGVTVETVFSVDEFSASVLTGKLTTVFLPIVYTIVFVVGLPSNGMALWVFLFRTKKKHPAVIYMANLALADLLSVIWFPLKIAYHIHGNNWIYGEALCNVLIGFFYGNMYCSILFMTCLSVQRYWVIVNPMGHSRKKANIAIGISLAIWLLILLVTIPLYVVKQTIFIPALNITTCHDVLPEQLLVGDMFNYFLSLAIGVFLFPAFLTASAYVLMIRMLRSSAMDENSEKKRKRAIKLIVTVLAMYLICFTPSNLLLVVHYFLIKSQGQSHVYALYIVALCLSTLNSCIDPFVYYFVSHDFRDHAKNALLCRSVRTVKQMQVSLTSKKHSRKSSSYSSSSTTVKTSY

T2: human PAR-1 (human, UniProt P25116 22-425)
T2 construct: also called huPAR-1
T2 sequence: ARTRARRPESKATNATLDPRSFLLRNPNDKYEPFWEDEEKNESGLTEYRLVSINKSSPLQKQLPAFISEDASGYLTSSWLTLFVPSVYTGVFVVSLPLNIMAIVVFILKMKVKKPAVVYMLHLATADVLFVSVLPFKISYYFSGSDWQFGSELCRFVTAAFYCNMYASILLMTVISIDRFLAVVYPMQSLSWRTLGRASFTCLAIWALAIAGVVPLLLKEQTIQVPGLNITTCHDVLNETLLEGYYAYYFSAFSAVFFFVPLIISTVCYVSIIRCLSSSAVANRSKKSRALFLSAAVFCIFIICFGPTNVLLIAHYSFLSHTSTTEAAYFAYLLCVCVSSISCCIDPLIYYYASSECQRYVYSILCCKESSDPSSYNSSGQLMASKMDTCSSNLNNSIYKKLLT

B1: Ab261 (antibody, human IgG4, V domains shown)
VH: EVQLVESGGGLVQPGRSLKLSCVASGFTFNNYWMTWIRQAPGKGLEWVASITNTGGNTYYPDSVKGRFTISRDNAKSTLYLQMNSLRSEDTATYYCTRDRIIRGADWFAYWGQGTLVTVSS
VL: DIQMTQSPHSLSASLGETVSIECLASEGISNYLAWFQQKPGKSPQLLIYYASSLQDGVPSRFSGSGSGTQYSLKISNMQPEDEGVYYCQQGYKYPWTFGGGTKLELK
notes: also called Anti-PAR-2 antibody # 261
B2: Ab228 (antibody, human IgG4, V domains shown)
VH: B1 VH with A24V, T54S, A105S, D106T
VL: B1 VL with F36Y, Q89H
B3: Ab227 (antibody, human IgG4, V domains shown)
VH: B1 VH with T54S, N57R, I70V, N74S, A105S, D106T, A109T
VL: B1 VL with K103E
notes: also called Anti-PAR-2 antibody # 227
B4: Ab435 (antibody, human IgG4, V domains shown)
VH: B1 VH with A24G, K43W, N57R, I101V, I102Y, R103Y, A105S, D106N, A109V
VL: B1 VL with F36Y, V85I, G91H
B5: Ab380 (antibody, human IgG4, V domains shown)
VH: B1 VH with S25T, T54S, N74D, D99V, I101V, I102Y, R103Y, A105S, D106N, A109V
VL: B1 VL
notes: also called Anti-PAR-2 antibody # 380
B6: Ab234 (antibody, human IgG4, V domains shown)
VH: EVQLVETGGGLVQPGRSLKLSCVASGFTFNNYWLYWIRQAPGKGLEWVSSINNDGGGTYYPDSVKGRFTVSRDNAENTVYLQMNSLRSEDTATYYCARDRAFIRGRFAYWGQGTLVTVSS
VL: EIVLTQSPTTMAASPGEKVTLTCRASSSVIYMHWYQQRSGASPKLWIYETSKLASGVPNRFGGSGSGTSYSLTINSMETEDAATYYCQQGSYYPWTFGGGTKLELK
notes: also called Anti-PAR-2 antibody # 234
B7: Ab192 (antibody, human IgG4, V domains shown)
VH: QVQLQQPGTELVKPGASVKLSCKASGYTFTSYWMHWIKQRPGQGLEWIGNINPSSGGTNYNEKFKTKATLTVDKSSSTAYMQLSSLTSEDSAVYYCAGEAYSNYVAWFAYWGQGTLVTVSS
VL: ENVLTQSPAIMSASLGEKVTMSCRASSSVNYMYWYQQKSDASPKLWIYYTSNLAPGVPARFSGSGSGTSYSLTISSMEGEDAATYYCQQFTTSPYTFGGGTKLEIK
notes: also called Anti-PAR-2 antibody # 192
B8: Ab209 (antibody, human IgG4, V domains shown)
VH: B7 VH with S55T, G57S, Y60F, E62V, A79T, S84N
VL: B7 VL with Q36R, A59T
notes: also called Anti-PAR-2 antibody # 209
B9: P24E883 (antibody, human IgG4 S228P, kappa, V domains shown)
VH: QVQLVQSGAEVKKPGSSVKVSCKASGFSLSSYAISWVRQAPGQGLEWMGVIWGNGNTYYAQKFQGRVTITADESTSTAYMELSSLRSEDTAVYYCARWRGYKDYPFDYWGQGTLVTVSS
VL: EIVLTQSPATLSLSPGERATLSCKASQNVYKWLDWYQQKPGQAPRLLIYNAYSLATGIPARFSGSGSGRDFTLTISSLEPEDFAVYYCQQHNSGWTFGGGTKVEIKR
B10: P24E914 (antibody, human IgG4 S228P, kappa, V domains shown)
VH: B9 VH with R99K
VL: B9 VL with K24R, V29I
B11: P24E889 (antibody, human IgG4 S228P, kappa, V domains shown)
VH: B9 VH
VL: B9 VL with K24R, V29I
B12: Ab225 (antibody, human IgG4, V domains shown)
VH: QVQLKESGPGLVQPSQTLSLTCTVSGFSLTSYHVSWVRQSPGKGLEWMGIIWTGGSTAYNSLLKSRLSISRDTSKSQVFLKMNSLQTEDTATYYCARRGAYPFYFDYWGQGVMVTVSS
VL: EIVLTQSPTTMAASPGEKVTITCRASSSVRSMYWYQQKSGASPKPWIYETSKLTSGVPDRFSGSGSGTSYSFTISSMGTEDAGTYYCHQWTTTPYTFGAGTKLELK
notes: also called Anti-PAR-2 antibody # 225
B13: Ab248 (antibody, human IgG4, V domains shown)
VH: B12 VH with S31N, S40P, A100L, F103Y
VL: B12 VL with M11L, S28R, R30S, S31N, P45A, T54A, G78E, G83A, T92S
notes: also called Anti-PAR-2 antibody # 248
B14: Ab245 (antibody, human IgG4, V domains shown)
VH: B12 VH with S19F, S40P, S65P, S68T, Q86R, A100L
VL: EVVLTQSPTTMAASPGEKVTITCRATSSVSHMYWYQQKSGASPKPWIYETSKLASGVPDRFRGSGSGTSYSFTISSMETEDVATYYCHQWSSFPYTFGPGTKLELK
notes: also called Anti-PAR-2 antibody # 245
B15: Ab140 (antibody, human IgG4, V domains shown)
VH: EVQLVESGGGLVQPKGSLKLSCAASGFTFNSYAMHWVRQAPGKGLEWVACIRSKSSYYATYYADSVKDRFTISRHDSQSMLYLQMNNLKTEDTAMYYCVREDYYGSSYDYWGQGTTLTVSS
VL: QIVLTQSPAIMSASLGERVTMTCTASSSVSSSYLHWYQQKPGSSPKLWIYATSNLASGVPARFSGSGSGTSYSLTISSMEAEDAATYYCHQYHRSPLTFGAGTKLELK
notes: also called Anti-PAR-2 antibody # 140
B16: Ab189 (antibody, human IgG4, V domains shown)
VH: B15 VH with S31T, C50R, S55T, S56T, Y57N, H75D, M85I, N86S, Y108L
VL: B15 VL with S30I, Y50F, A51S, S78T
notes: also called Anti-PAR-2 antibody # 189
B17: Ab5 (antibody, human IgG4, V domains shown)
VH: QVQLQQPGSELVKPGASVKLSCKASGYTFTNYWMHWVKQRPGQGLEWIGMIHPNSDFSNYNEKFKKKATLTVDKSSSTAYMQLSSLTSEDSAVYFCAKGPNYYGSRYWYFDVWGTGTTVTVSS
VL: DIVLTQSPTSLAVSLGQRATISCRASESVDSYGNSFLHWYQQKAGQPPKLLIYRTSNLESGIPARFSGSGSRTDFTLTINPVEADDVATYFCQQSNEDPYTFGGGTKLELK
notes: also called Anti-PAR-2 antibody # 5
B18: Ab201 (antibody, human IgG4, V domains shown)
VH: QVQLQQSGPELVKPGASVKISCKASGFSFTSFYIHWVNQRPGQGLEWIGWIYPGSGNTLYNEKFKGKATLTADTSSSTAYIHLSSLTSEDSAVYYCTRGPLFYGSSHWYFDVWGMGTTVTVSS
VL: EVQITQSPSYLAASPGETITINCRASKSISKYLAWYQEKPGKTNKLLIYSGSTLQSGIPSRFSGSGSGTDFTLTISSLEPEDFAMYYCQQHNKYPLTFGAGTRLELK

Columns and labels:
human PAR-2 [1] = target: T1, human PAR-2; assay: cell-based or functional assay
human PAR-1 = target: T2, human PAR-1; assay: flow cytometry, transfected Expi293F cells
Method: Paired heavy and light chains encoded by these sequence pairs were expressed as a full length human IgG4 isotype antibodies and assessed for PAR-2 binding and selectivity by flow cytometry. […] Cells were used for flow cytometric analysis 36-48 hours post-transfection. Use of Nt-PAR-2 as a target allowed antibodies which bound the N-terminal residues of PAR-2 (which comprise the protease-cleavage sites on PAR-2) to be distinguished from antibodies which bound other extracellular sites on PAR-2, such as the PAR-2-activating ligand-binding site(s). Expi293F cells, transiently expressing one of each of the different target proteins were labelled with different intensities of a single fluorphor Encoder dye (Intellicyt) for 10 mins at either 1 in 250 dilution for high intensity and/or 1 in 1500 dilution for moderate intensity, enabling simultaneous analysis of multiple cell populations. After washing the cells were then mixed in an equal ratio with the unlabeled cell type and analyzed for antibody binding.
The cells were plated in 96 well plates at 2×10⁵ cells/well. Following a wash step using Phosphate buffered saline (PBS), the primary antibody (anti-PAR-2 antibody) was added at a concentration of 10 μg/mL in 50 μL of FACS buffer (0.5% w/v BSA in PBS) to each well and incubated for 10-15 mins. Following a wash step, secondary antibody (anti-human Fc-FITC) was added to the wells at 1:200 dilution in 50 μL for 10-15 mins. Following a washing step, the cells were re-suspended in fluorescence-activated cell sorting (FACS) buffer. The flow cytometry analysis was performed on an Intellicyt iQue screener. Gates were drawn around the different intensities of encoder dye-positive cells and these populations were analyzed separately from each other and the unlabeled cells for binding by the primary antibody.

human PAR-2 [2] = target: T1, human PAR-2; assay: cell-based or functional assay; remark: listed apart in the source

Binder | IC50, PAR-2 β-arrestin cell assay (human PAR-2 [1]) [nM] | binding result (human PAR-1) | PAR-2 β-arrestin cell based assay IC50, 2 µM SLIGKV (human PAR-2 [2]) [nM]
B1 | 19.9 | no binding (tested: 10 µg/mL) | –
B2 | 33.3 | no binding (tested: 10 µg/mL) | –
B3 | 10.2 | no binding (tested: 10 µg/mL) | –
B4 | 53.8 | no binding (tested: 10 µg/mL) | –
B5 | 57.1 | no binding (tested: 10 µg/mL) | –
B6 | 4.8 | no binding (tested: 10 µg/mL) | –
B7 | 100 | no binding (tested: 10 µg/mL) | –
B8 | 65.5 | no binding (tested: 10 µg/mL) | –
B9 | – | – | 1.21
B10 | – | – | 0.94
B11 | – | – | 0.97
B12 | 3.4 | no binding (tested: 10 µg/mL) | –
B13 | 4.6 | no binding (tested: 10 µg/mL) | –
B14 | 3.8 | no binding (tested: 10 µg/mL) | –
B15 | 20.1 | no binding (tested: 10 µg/mL) | –
B16 | 123 | no binding (tested: 10 µg/mL) | –
B17 | 23.1 | no binding (tested: 10 µg/mL) | –
B18 | 10.7 | no binding (tested: 10 µg/mL) | –
